{"source": "paper PMC9482650", "about": "“Quantitative fragmentomics allow affinity mapping of interactomes” (Nature Communications, 2022)"}
{"molecular_target": "T1, NHERF3_3, Q5T2W1", "T1 sequence (Q5T2W1 238-333, limits assumed, looked up)": "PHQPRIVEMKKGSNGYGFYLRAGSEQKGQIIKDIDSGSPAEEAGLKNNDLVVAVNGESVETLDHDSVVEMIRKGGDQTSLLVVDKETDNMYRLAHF", "assay": "holdup assay", "parameters": "key: below the threshold = too weak to quantify, mostly under pKd 3.1 to 4", "conditions": "plain residues with an end cap or a label only (N-terminal biotin on a linker: ado-ado)"}
{"binder": "GCQGETEDVL", "note": "[PTH2R, P49190]", "pKd": "below the threshold"}
{"molecular_target": "T2, LIN7A, O14910", "T2 sequence (O14910 103-200, limits assumed, looked up)": "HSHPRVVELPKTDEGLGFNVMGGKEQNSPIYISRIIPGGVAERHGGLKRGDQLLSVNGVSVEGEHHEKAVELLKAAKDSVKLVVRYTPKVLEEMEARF", "assay": "holdup assay", "parameters": "key: below the threshold = too weak to quantify, mostly under pKd 3.1 to 4", "conditions": "plain residues with an end cap or a label only (N-terminal biotin on a linker: ado-ado)"}
{"binder": "GCQGETEDVL", "note": "[PTH2R, P49190]", "pKd": "below the threshold"}
{"molecular_target": "Inadl_9, Q8NI35", "sequence (Q8NI35 1530-1615)": "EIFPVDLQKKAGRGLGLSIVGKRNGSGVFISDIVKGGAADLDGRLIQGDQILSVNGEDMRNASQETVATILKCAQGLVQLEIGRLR", "assay": "holdup assay", "parameters": "key: below the threshold = too weak to quantify, mostly under pKd 3.1 to 4", "conditions": "plain residues with an end cap or a label only (N-terminal biotin on a linker: ado-ado)"}
{"binder": "GCQGETEDVL", "note": "[PTH2R, P49190]", "pKd": "below the threshold"}
{"molecular_target": "FRMPD2_2, Q68DX3", "sequence (Q68DX3 944-1038)": "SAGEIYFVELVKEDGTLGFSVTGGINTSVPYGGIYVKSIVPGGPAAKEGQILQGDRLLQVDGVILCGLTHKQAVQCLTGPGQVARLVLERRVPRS", "assay": "holdup assay", "parameters": "key: below the threshold = too weak to quantify, mostly under pKd 3.1 to 4", "conditions": "plain residues with an end cap or a label only (N-terminal biotin on a linker: ado-ado)"}
{"binder": "GCQGETEDVL", "note": "[PTH2R, P49190]", "pKd": "below the threshold"}
{"molecular_target": "T3, DLG3_1, Q92796", "T3 sequence (Q92796 125-227, limits assumed, looked up)": "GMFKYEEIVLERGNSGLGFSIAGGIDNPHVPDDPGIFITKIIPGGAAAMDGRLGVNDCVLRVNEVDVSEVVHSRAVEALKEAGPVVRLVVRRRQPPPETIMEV", "assay": "holdup assay", "parameters": "key: below the threshold = too weak to quantify, mostly under pKd 3.1 to 4", "conditions": "plain residues with an end cap or a label only (N-terminal biotin on a linker: ado-ado)"}
{"binder": "GCQGETEDVL", "note": "[PTH2R, P49190]", "pKd": "below the threshold"}
{"molecular_target": "GORASP2, Q9H8Y8", "assay": "holdup assay", "parameters": "key: below the threshold = too weak to quantify, mostly under pKd 3.1 to 4", "conditions": "plain residues with an end cap or a label only (N-terminal biotin on a linker: ado-ado)"}
{"binder": "GCQGETEDVL", "note": "[PTH2R, P49190]", "pKd": "below the threshold"}
{"molecular_target": "Inadl_3, Q8NI35", "sequence (Q8NI35 359-469)": "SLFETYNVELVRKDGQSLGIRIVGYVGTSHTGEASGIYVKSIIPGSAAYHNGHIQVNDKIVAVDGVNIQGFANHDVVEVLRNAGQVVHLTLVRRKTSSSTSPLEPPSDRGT", "assay": "holdup assay", "parameters": "key: below the threshold = too weak to quantify, mostly under pKd 3.1 to 4", "conditions": "plain residues with an end cap or a label only (N-terminal biotin on a linker: ado-ado)"}
{"binder": "GCQGETEDVL", "note": "[PTH2R, P49190]", "pKd": 3.92}
{"molecular_target": "AHNAK1, Q09666", "sequence (Q09666 4-100)": "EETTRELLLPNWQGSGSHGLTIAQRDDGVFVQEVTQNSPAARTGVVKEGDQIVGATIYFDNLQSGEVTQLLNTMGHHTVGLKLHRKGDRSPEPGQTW", "assay": "holdup assay", "parameters": "key: below the threshold = too weak to quantify, mostly under pKd 3.1 to 4", "conditions": "plain residues with an end cap or a label only (N-terminal biotin on a linker: ado-ado)"}
{"binder": "GCQGETEDVL", "note": "[PTH2R, P49190]", "pKd": "below the threshold"}
{"molecular_target": "DLG1_3, Q12959", "sequence (Q12959 457-571)": "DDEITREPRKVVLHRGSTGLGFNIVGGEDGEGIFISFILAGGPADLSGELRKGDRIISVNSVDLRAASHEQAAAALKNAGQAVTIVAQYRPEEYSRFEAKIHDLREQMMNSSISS", "assay": "holdup assay", "parameters": "key: below the threshold = too weak to quantify, mostly under pKd 3.1 to 4", "conditions": "plain residues with an end cap or a label only (N-terminal biotin on a linker: ado-ado)"}
{"binder": "GCQGETEDVL", "note": "[PTH2R, P49190]", "pKd": "below the threshold"}
{"molecular_target": "LNX1_2, Q8TBB1", "sequence (Q8TBB1 371-470)": "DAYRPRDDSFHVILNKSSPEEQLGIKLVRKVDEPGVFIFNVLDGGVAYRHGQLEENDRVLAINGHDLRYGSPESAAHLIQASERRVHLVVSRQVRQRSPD", "assay": "holdup assay", "parameters": "key: below the threshold = too weak to quantify, mostly under pKd 3.1 to 4", "conditions": "plain residues with an end cap or a label only (N-terminal biotin on a linker: ado-ado)"}
{"binder": "GCQGETEDVL", "note": "[PTH2R, P49190]", "pKd": "below the threshold"}
{"molecular_target": "MAGI2_4, Q86UL8", "sequence (Q86UL8 772-865)": "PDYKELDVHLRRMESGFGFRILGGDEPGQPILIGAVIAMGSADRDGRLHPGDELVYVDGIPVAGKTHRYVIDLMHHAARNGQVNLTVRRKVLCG", "assay": "holdup assay", "parameters": "key: below the threshold = too weak to quantify, mostly under pKd 3.1 to 4", "conditions": "plain residues with an end cap or a label only (N-terminal biotin on a linker: ado-ado)"}
{"binder": "GCQGETEDVL", "note": "[PTH2R, P49190]", "pKd": "below the threshold"}
{"molecular_target": "T4, SNTG2, Q9NY99", "T4 sequence (Q9NY99 68-166, limits assumed, looked up)": "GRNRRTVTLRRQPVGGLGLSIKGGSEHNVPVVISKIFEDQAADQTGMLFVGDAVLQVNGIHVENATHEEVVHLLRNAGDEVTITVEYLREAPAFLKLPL", "assay": "holdup assay", "parameters": "key: below the threshold = too weak to quantify, mostly under pKd 3.1 to 4", "conditions": "plain residues with an end cap or a label only (N-terminal biotin on a linker: ado-ado)"}
{"binder": "GCQGETEDVL", "note": "[PTH2R, P49190]", "pKd": "below the threshold"}
{"molecular_target": "Inadl_10, Q8NI35", "sequence (Q8NI35 1673-1763)": "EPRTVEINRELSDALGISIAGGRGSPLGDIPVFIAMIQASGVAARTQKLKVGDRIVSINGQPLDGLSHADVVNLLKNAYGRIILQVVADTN", "assay": "holdup assay", "parameters": "key: below the threshold = too weak to quantify, mostly under pKd 3.1 to 4", "conditions": "plain residues with an end cap or a label only (N-terminal biotin on a linker: ado-ado)"}
{"binder": "GCQGETEDVL", "note": "[PTH2R, P49190]", "pKd": "below the threshold"}
{"molecular_target": "TJP1_3, Q07157", "sequence (Q07157 416-512)": "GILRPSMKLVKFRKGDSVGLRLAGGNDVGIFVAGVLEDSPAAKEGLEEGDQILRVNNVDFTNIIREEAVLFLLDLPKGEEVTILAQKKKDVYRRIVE", "assay": "holdup assay", "parameters": "key: below the threshold = too weak to quantify, mostly under pKd 3.1 to 4", "conditions": "plain residues with an end cap or a label only (N-terminal biotin on a linker: ado-ado)"}
{"binder": "GCQGETEDVL", "note": "[PTH2R, P49190]", "pKd": "below the threshold"}
{"molecular_target": "FRMPD2_3, Q68DX3", "sequence (Q68DX3 1073-1166)": "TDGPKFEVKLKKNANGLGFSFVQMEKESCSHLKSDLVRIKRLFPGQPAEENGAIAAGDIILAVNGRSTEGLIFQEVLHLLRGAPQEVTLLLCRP", "assay": "holdup assay", "parameters": "key: below the threshold = too weak to quantify, mostly under pKd 3.1 to 4", "conditions": "plain residues with an end cap or a label only (N-terminal biotin on a linker: ado-ado)"}
{"binder": "GCQGETEDVL", "note": "[PTH2R, P49190]", "pKd": "below the threshold"}
{"molecular_target": "T5, RHPN1, Q8TCX5", "T5 sequence (Q8TCX5 508-602, limits assumed, looked up)": "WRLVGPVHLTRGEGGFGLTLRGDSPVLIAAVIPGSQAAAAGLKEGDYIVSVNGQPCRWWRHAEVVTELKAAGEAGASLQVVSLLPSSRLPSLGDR", "assay": "holdup assay", "parameters": "key: below the threshold = too weak to quantify, mostly under pKd 3.1 to 4", "conditions": "plain residues with an end cap or a label only (N-terminal biotin on a linker: ado-ado)"}
{"binder": "GCQGETEDVL", "note": "[PTH2R, P49190]", "pKd": "below the threshold"}
{"molecular_target": "T6, SNTG1, Q9NSN8", "T6 sequence (Q9NSN8 52-150, limits assumed, looked up)": "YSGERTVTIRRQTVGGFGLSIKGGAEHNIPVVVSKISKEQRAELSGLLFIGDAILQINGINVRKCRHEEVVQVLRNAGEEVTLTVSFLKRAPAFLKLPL", "assay": "holdup assay", "parameters": "key: below the threshold = too weak to quantify, mostly under pKd 3.1 to 4", "conditions": "plain residues with an end cap or a label only (N-terminal biotin on a linker: ado-ado)"}
{"binder": "GCQGETEDVL", "note": "[PTH2R, P49190]", "pKd": "below the threshold"}
{"molecular_target": "T7, MPDZ_5, O75970", "T7 sequence (O75970 695-796, limits assumed, looked up)": "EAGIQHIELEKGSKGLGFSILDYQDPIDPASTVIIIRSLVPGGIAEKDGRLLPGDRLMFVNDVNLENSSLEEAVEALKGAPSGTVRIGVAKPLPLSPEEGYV", "assay": "holdup assay", "parameters": "key: below the threshold = too weak to quantify, mostly under pKd 3.1 to 4", "conditions": "plain residues with an end cap or a label only (N-terminal biotin on a linker: ado-ado)"}
{"binder": "GCQGETEDVL", "note": "[PTH2R, P49190]", "pKd": "below the threshold"}
{"molecular_target": "PTPN3, P26045", "sequence (P26045 505-587)": "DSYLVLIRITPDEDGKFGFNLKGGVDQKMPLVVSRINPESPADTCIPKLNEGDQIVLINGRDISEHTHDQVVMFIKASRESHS", "assay": "holdup assay", "parameters": "key: below the threshold = too weak to quantify, mostly under pKd 3.1 to 4", "conditions": "plain residues with an end cap or a label only (N-terminal biotin on a linker: ado-ado)"}
{"binder": "GCQGETEDVL", "note": "[PTH2R, P49190]", "pKd": 3.78}
{"molecular_target": "MAGI1_2, Q96QZ7", "sequence (Q96QZ7 456-580)": "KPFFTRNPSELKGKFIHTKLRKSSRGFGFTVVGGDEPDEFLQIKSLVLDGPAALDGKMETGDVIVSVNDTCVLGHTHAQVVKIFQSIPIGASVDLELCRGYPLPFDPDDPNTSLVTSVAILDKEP", "assay": "holdup assay", "parameters": "key: below the threshold = too weak to quantify, mostly under pKd 3.1 to 4", "conditions": "plain residues with an end cap or a label only (N-terminal biotin on a linker: ado-ado)"}
{"binder": "GCQGETEDVL", "note": "[PTH2R, P49190]", "pKd": "below the threshold"}
{"molecular_target": "T8, DLG3_2, Q92796", "T8 sequence (Q92796 221-321, limits assumed, looked up)": "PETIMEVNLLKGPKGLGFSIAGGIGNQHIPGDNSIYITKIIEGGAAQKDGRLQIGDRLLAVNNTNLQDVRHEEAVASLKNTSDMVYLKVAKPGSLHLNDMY", "assay": "holdup assay", "parameters": "key: below the threshold = too weak to quantify, mostly under pKd 3.1 to 4", "conditions": "plain residues with an end cap or a label only (N-terminal biotin on a linker: ado-ado)"}
{"binder": "GCQGETEDVL", "note": "[PTH2R, P49190]", "pKd": "below the threshold"}
{"molecular_target": "NHERF4_1, Q86UT5-2", "sequence (Q86UT5 other isoform, or with tags, fused parts or gaps)": "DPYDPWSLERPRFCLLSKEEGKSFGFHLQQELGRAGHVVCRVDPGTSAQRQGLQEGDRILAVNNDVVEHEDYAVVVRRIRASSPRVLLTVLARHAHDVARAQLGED", "assay": "holdup assay", "parameters": "key: below the threshold = too weak to quantify, mostly under pKd 3.1 to 4", "conditions": "plain residues with an end cap or a label only (N-terminal biotin on a linker: ado-ado)"}
{"binder": "GCQGETEDVL", "note": "[PTH2R, P49190]", "pKd": 3.85}
{"molecular_target": "T9, RADIL, Q96JH8", "T9 sequence (Q96JH8 971-1071, limits assumed, looked up)": "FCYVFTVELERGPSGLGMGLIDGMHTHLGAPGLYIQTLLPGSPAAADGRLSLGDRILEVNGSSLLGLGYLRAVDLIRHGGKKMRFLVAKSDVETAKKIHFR", "assay": "holdup assay", "parameters": "key: below the threshold = too weak to quantify, mostly under pKd 3.1 to 4", "conditions": "plain residues with an end cap or a label only (N-terminal biotin on a linker: ado-ado)"}
{"binder": "GCQGETEDVL", "note": "[PTH2R, P49190]", "pKd": "below the threshold"}
{"molecular_target": "T10, PTPN13_1, Q12923", "T10 sequence (Q12923 1088-1188, limits assumed, looked up)": "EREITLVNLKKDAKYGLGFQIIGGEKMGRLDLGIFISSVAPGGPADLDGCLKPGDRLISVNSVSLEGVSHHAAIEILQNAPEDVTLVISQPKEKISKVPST", "assay": "holdup assay", "parameters": "key: below the threshold = too weak to quantify, mostly under pKd 3.1 to 4", "conditions": "plain residues with an end cap or a label only (N-terminal biotin on a linker: ado-ado)"}
{"binder": "GCQGETEDVL", "note": "[PTH2R, P49190]", "pKd": "below the threshold"}
{"molecular_target": "T11, DFNB31_1, Q9P202", "T11 sequence (Q9P202 135-233, limits assumed, looked up)": "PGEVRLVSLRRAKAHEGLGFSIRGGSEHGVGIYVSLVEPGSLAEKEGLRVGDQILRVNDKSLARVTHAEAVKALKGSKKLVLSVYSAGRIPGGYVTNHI", "assay": "holdup assay", "parameters": "key: below the threshold = too weak to quantify, mostly under pKd 3.1 to 4", "conditions": "plain residues with an end cap or a label only (N-terminal biotin on a linker: ado-ado)"}
{"binder": "GCQGETEDVL", "note": "[PTH2R, P49190]", "pKd": "below the threshold"}
{"molecular_target": "LIMK2, P53671", "sequence (P53671 143-248)": "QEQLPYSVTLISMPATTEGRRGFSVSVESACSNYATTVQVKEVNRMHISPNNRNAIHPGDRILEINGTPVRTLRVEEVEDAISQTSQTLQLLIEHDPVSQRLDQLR", "assay": "holdup assay", "parameters": "key: below the threshold = too weak to quantify, mostly under pKd 3.1 to 4", "conditions": "plain residues with an end cap or a label only (N-terminal biotin on a linker: ado-ado)"}
{"binder": "GCQGETEDVL", "note": "[PTH2R, P49190]", "pKd": "below the threshold"}
{"molecular_target": "SCRIB_2, Q14160", "sequence (Q14160 857-960)": "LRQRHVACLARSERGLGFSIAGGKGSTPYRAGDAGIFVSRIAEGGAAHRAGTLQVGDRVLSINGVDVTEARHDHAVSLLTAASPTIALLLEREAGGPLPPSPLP", "assay": "holdup assay", "parameters": "key: below the threshold = too weak to quantify, mostly under pKd 3.1 to 4", "conditions": "plain residues with an end cap or a label only (N-terminal biotin on a linker: ado-ado)"}
{"binder": "GCQGETEDVL", "note": "[PTH2R, P49190]", "pKd": "below the threshold"}
